Data taken from PMC5522423, “Influence of C-terminal truncation of murine Serum amyloid A on fibril structure” (Scientific Reports, 2017).

Target: the molecule itself
Test: in vitro fibril formation (negative-stain TEM, with ThT fluorescence, Congo red absorption and ATR-FTIR of the fibrils); 80 µM protein in 50 mM Tris buffer (pH 8.0), 7 days at 37 °C, 300 rpm; self-assembly into amyloid-like fibrils

B1: full-length murine serum amyloid A 1.1, SAA(1–103) (natural protein, mouse, UniProt P05367 20-122, looked up)
chain: GFFSFIGEAFQGAGDMWRAYTDMKEAGWKDGDKYFHARGNYDAAQRGPGGVWAAEKISDARESFQEFFGRGHEDTMADQEANRHGRSGKDPNYYRPPGLPAKY
notes: Serum amyloid A 1.1 (SAA1.1), mouse, 103 residues; also called murine SAA1.1; mSAA; source: E. coli RV308 (pMal-c2X vector), purified as described previously, lyophilized
B1: binds.
